Where a chain is given by its changes, count along the chain named. Blank lines part the entries; values can stand above or below the binder they belong to.
Columns and labels:
[1] = molecular target: T1, human CD47 expressed on the cell surface (human, UniProt Q08722 19-323); test: blocking of human SIRPα binding to OCI-Ly3 cells; competitor SIRPα (FIG. 21)
T1 construct: whole, on cells; also called cell surface CD47; CD47 on Raji, OCI-Ly3, Fadu cells, human RBCs, platelets and blood cells

human CD20 on cells = molecular target: T2, human CD20 on cells (human, UniProt P11836 1-297); test: binding to Raji cells (CD20+/CD47+), MFI on the sheet (the legend paragraph 49 says SPR); the signal is not resolved between the CD20 and CD47 arms
T2 construct: whole, on cells; The CD20+ cells in these assays also carry CD47; also called CD20 on B cells and Raji cells
T2 sequence (looked up): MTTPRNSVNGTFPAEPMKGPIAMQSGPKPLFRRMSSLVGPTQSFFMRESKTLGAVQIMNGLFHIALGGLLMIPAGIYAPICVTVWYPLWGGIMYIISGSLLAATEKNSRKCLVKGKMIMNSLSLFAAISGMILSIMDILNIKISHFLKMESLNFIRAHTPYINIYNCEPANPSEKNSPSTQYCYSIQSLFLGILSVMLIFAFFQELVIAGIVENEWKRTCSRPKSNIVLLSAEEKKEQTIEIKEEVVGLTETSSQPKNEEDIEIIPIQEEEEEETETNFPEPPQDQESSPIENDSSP

[2] = molecular target: T1, human CD47 expressed on the cell surface; test: blocking of human SIRPα binding to OCI-Ly3 cells; competitor SIRPα at a saturating concentration, secondary antibody detection; OCI-Ly3 cells (CD20+ DLBCL line); blocking of human SIRPα binding
[3] = molecular target: T1, human CD47 expressed on the cell surface; test: blocking of human SIRPα binding to Raji cells; competitor SIRPα at a saturating concentration, secondary antibody detection; Raji cells (CD47+/CD20+ Burkitt's lymphoma line); blocking of human SIRPα binding
cynomolgus CD47 ECD = molecular target: T3, cynomolgus CD47 ECD (cynomolgus, UniProt A0A2K5X523 19-139); test: SPR
T3 construct: extracellular domain

mouse CD47 = molecular target: T4, mouse CD47 (mouse, UniProt Q61735 19-140, limits assumed); test: SPR
T4 sequence (looked up): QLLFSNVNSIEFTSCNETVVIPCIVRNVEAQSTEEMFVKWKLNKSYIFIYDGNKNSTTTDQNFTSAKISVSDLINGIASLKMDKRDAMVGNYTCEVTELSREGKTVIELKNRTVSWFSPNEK

human CD47 ECD [4] = molecular target: T5, human CD47 ECD (human, UniProt Q08722 19-139); test: SPR
T5 construct: extracellular domain; also called human CD47 extracellular domain

[5] = molecular target: T1, human CD47 expressed on the cell surface; test: cell-based or functional assay
human CD47 ECD [6] = molecular target: T5, human CD47 ECD; test: column 'Human CD47 KD (µM)'; the sheet names no assay (SPR per paragraph 7 and paragraph 162)
[7] = molecular target: T1, human CD47 expressed on the cell surface; test: cell-based or functional assay; remark: listed apart in the source

IC50 [1]: 0.11 nM
B1: TPP-23 (408_437 with IgG1) (antibody, V domains shown)
VH: QMQLVQSGAEVKKPGSSVKVSCKASGFNIKDYYLHWVRQAPGKGLEWMGWIDPDQGDTEYAQKFQGRVTITRDRSTSTAYMELRSLRAEDTAVYYCNAAYGSSSYPMDYWGQGTLVTVSS
VL: NIQMTQSPSSLSASVGDRVTITCRASQDIHRYLSWFQQKPGKVPKHLIYRANRLVSGVPSRFSGSGSGTEFTLTISSLQPEDFATYYCLQYDEFPYTFGGGTKVEIK
notes: Monospecific IgG1 with the 408_437 Fab; also called parental CD47 mAb

binding result (human CD20 on cells): binds
EC50 [2]: 1.3 nM
EC50 [3]: 1.64 nM
Kd (cynomolgus CD47 ECD): 4510 nM
binding result (mouse CD47): no binding
Kd (human CD47 ECD [4]): 1700 nM
fold decrease in affinity relative to the parental anti-CD47 binder (human CD47 ECD [4]): ~350 fold
IC50 of activation of macrophage phagocytosis, OCI-Ly3 cell line [5]: 1.4 nM
IC50 of activation of macrophage phagocytosis, Raji cell line [5]: 1.8 nM
B2: TPP-1360 (bispecific antibody, human IgG1, kappa)
light 1: NIQMTQSPSSLSASVGDRVTITCRASQDIHRYLSWFQQKPGKVPKHLIYRESRFVDGVPSRFSGSGSGTEFTLTISSLQPEDFATYYCLQYDEFPYTFGGGTKVEIKRTVAAPSVFIFPPSDEELKSGTASVVCWLNNFYPREAKVQWKVDNALQSGNSEESVTEQDSKDSTYSLSSTLELSKADYEKHKVYACEVTHQGLSSPVTKSFNRGEC
heavy 1: QMQLVQSGAEVKKPGSSVKVSCKASGFNIKDYYLHWVRQAPGKGLEWMGWIDPDQGDTYYAQKFQGRVTITRDRSTSTAYMELRSLRAEDTAVYYCNAAYGESSYPMDYWGQGTLVTVSSASTKGPSVFPLAPSSKSTSGGTAALGCLVKDYFPEPVTVSWNSGALTSGVHTFPAVLKSSGLYSLSSVVTVPSSSLGTQTYICNVNHKPSNTKVDKKVEPKSCDKTHTCPPCPAPELLGGPSVFLFPPKPKDTLMISRTPEVTCVVVDVSHEDPEVKFNWYVDGVEVHNAKTKPREEQYNSTYRVVSVLTVLHQDWLNGKEYKCKVSNKALPAPIEKTISKAKGQPREPQVYVLPPSREEMTKNQVSLLCLVKGFYPSDIAVEWESNGQPENNYLTWPPVLDSDGSFFLYSKLTVDKSRWQQGNVFSCSVMHEALHNHYTQKSLSLSPGK
light 2: QIVLSQSPAILSASPGEKVTMTCRASSSVSYIHWFQQKPGSSPKPWIYATSNLASGVPVRFSGSGSGTSYSLTISRVEAEDAATYYCQQWTSNPPTFGGGTKLEIKRTVAAPSVAIFPPSDERLKSGTASVVCVLNNFYPREAKVQWKVDNALQSGNSQESVTEQDSKDSTYSLSSRLTLSKADYEKHKVYACEVTHQGLSSPVTKSFNRGEC
heavy 2: QVQLQQPGAELVKPGASVKMSCKASGYTFTSYNMHWVKQTPGRGLEWIGAIYPGNGDTSYNQKFKGKATLTADKSSSTAYMQLSSLTSEDSAVYYCARSTYYGGDWYFNVWGAGTTVTVSAASTKGPSVFPLAPSSKSTSGGTAWLGCEVTDYFPEPVTVSWNSGALTSGVHTFPAVLESSGLYSLSSVVTVPSSSLGTQTYICNVNHKPSNTKVDKKVEPKSCDKTHTCPPCPAPELLGGPSVFLFPPKPKDTLMISRTPEVTCVVVDVSHEDPEVKFNWYVDGVEVHNAKTKPREEQYNSTYRVVSVLTVLHQDWLNGKEYKCKVSNKALPAPIEKTISKAKGQPREPQVYVYPPSREEMTKNQVSLTCLVKGFYPSDIAVEWESNGQPENNYKTTPPVLDSDGSFALVSKLTVDKSRWQQGNVFSCSVMHEALHNHYTQKSLSLSPGK
notes: IgG1 1+1 heterodimer: one detuned anti-CD47 arm and one rituximab-derived anti-CD20 arm; also called CD47×CD20 bispecific; CD47×CD20 IgG1

Kd (human CD47 ECD [6]): 430 nM
EC50 of macrophage phagocytosis of OCI-Ly3 cells (column 'OCI-Ly3 Mφ EC50 (µg/mL)') [7]: 0.064 µg/mL
EC50 of macrophage phagocytosis of OCI-Ly3 cells, repeat (column 'OCI-Ly3 Mφ EC50 (µg/mL) Repeat') [7]: 0.046 µg/mL
B3: TPP-1367 (bispecific antibody, human IgG1, kappa)
anti-CD47 light chain: B2 light 1 with E51A, S52N, F54L, D56S
anti-CD47 heavy chain: B2 heavy 1
anti-CD20 light chain: B2 light 2
anti-CD20 heavy chain: B2 heavy 2
notes: IgG1 1+1 heterodimer; also called CD47/CD20 TPP1367; CD47×CD20 bispecific

Kd (human CD47 ECD [6]): 2530 nM
EC50 of macrophage phagocytosis of OCI-Ly3 cells (column 'OCI-Ly3 Mφ EC50 (µg/mL)') [7]: 0.5 µg/mL
EC50 of macrophage phagocytosis of OCI-Ly3 cells, repeat (column 'OCI-Ly3 Mφ EC50 (µg/mL) Repeat') [7]: 0.45 µg/mL
B4: TPP-1361 (bispecific antibody, human IgG1, kappa)
light 1: B2 light 1 with R24Q, K39D, K42T, K45Q
heavy 1: B2 heavy 1 with K43Q, R84A, R87T
light 2: B2 light 2
heavy 2: B2 heavy 2
notes: IgG1 1+1 heterodimer; also called CD47×CD20 bispecific

From patent publication US20220162330A1 (CELGENE, published 2022)
